# In the Human Domainome abundance scans (Beltran et al. 2025):
# ± gives the uncertainty stated by the source.
# B1: Dynamin-binding protein, residues 146 to 206; numbered along this chain, Q6XZF7 (parent)
# chain: SMGQARALMGLSAQLDEELDFREGDVITIIGVPEPGWFEGELEGRRGIFPEGFVELLGPLR
# Variants of: B1
# Experiment: abundance fitness (aPCA) (normalised: wild type 0, dead -1); higher = more abundant; growth selection in yeast, the domain comes from the species named
# Conditions: Homo sapiens
row,Variant,abundance fitness
1,L8S,-0.305 ± 0.045
2,L42D,-0.975 ± 0.15
3,L42P,-0.5 ± 0.1
4,R61P,0.123 ± 0.22
5,R61G,-0.123 ± 0.096
6,R61H,-0.153 ± 0.08
7,R61D,-0.053 ± 0.084
8,R61V,0.019 ± 0.083
9,R61F,-0.363 ± 0.12
10,R61K,0.47 ± 0.3
11,R22Q,-0.027 ± 0.089
12,R22C,0.081 ± 0.11
13,L60M,-0.062 ± 0.12
14,L60G,-0.176 ± 0.11
15,L60A,-0.387 ± 0.26
16,L60Y,-0.862 ± 0.39
17,V32G,-0.599 ± 0.075
18,V32F,-0.446 ± 0.15
19,V32P,-1.04 ± 0.23
20,E34S,-0.129 ± 0.12
21,E34I,-0.055 ± 0.2
22,E34L,-0.611 ± 0.2
23,E34R,0.025 ± 0.12
24,F53Y,0.059 ± 0.091

row,Variant,abundance fitness
1,F53E,-0.486 ± 0.2
2,Q14I,-0.354 ± 0.062
3,Q14V,-0.175 ± 0.082
4,E51S,-0.053 ± 0.065
5,E51Q,-0.074 ± 0.18
6,V26S,-0.704 ± 0.059
7,V26K,-0.311 ± 0.12
8,V26L,0.043 ± 0.049
9,V26E,-0.27 ± 0.13
10,V26R,-0.353 ± 0.054
11,V26M,-0.154 ± 0.1
12,V26G,-0.687 ± 0.056
13,V26H,-0.279 ± 0.067
14,V26F,-0.464 ± 0.055
15,V26Q,-0.532 ± 0.14
16,V26Y,-0.416 ± 0.051
17,V54K,-0.671 ± 0.25
18,V54N,-0.674 ± 0.45
19,V54G,-0.708 ± 0.07
20,A5P,-0.686 ± 0.11
21,A5D,-0.706 ± 0.18
22,A5S,-0.545 ± 0.13
23,A5G,-0.008 ± 0.045
24,E39R,-0.141 ± 0.051

row,Variant,abundance fitness
1,E39S,-0.339 ± 0.044
2,A13Q,-0.348 ± 0.12
3,A13H,-0.548 ± 0.072
4,A13T,0.353 ± 0.23
5,E43W,-0.747 ± 0.15
6,E43D,0.089 ± 0.06
7,E43L,-0.527 ± 0.19
8,E43M,0.06 ± 0.077
9,I30A,-0.374 ± 0.17
10,I30C,-0.599 ± 0.19
11,I30L,-0.085 ± 0.13
12,R6Q,-0.495 ± 0.18
13,R6Y,-0.471 ± 0.064
14,G40K,-0.906 ± 0.16
15,G40F,-0.901 ± 0.087
16,G40Y,-0.604 ± 0.07
17,G40L,-0.762 ± 0.078
18,D16F,-0.763 ± 0.14
19,D16N,-0.315 ± 0.1
20,D25F,-0.518 ± 0.075
21,M9F,-0.225 ± 0.045
22,M9C,-0.013 ± 0.061
23,M9T,0.017 ± 0.051
24,G58H,-0.23 ± 0.085

row,Variant,abundance fitness
1,G58T,-0.079 ± 0.069
2,G58Q,-0.013 ± 0.1
3,G52L,-0.29 ± 0.31
4,G52E,-0.189 ± 0.25
5,G52A,0.111 ± 0.11
6,G52T,-0.083 ± 0.15
7,G52Y,-0.064 ± 0.3
8,G52M,0.046 ± 0.23
9,G52R,0.117 ± 0.18
10,G52W,-0.053 ± 0.21
11,G52H,0.404 ± 0.22
12,M2V,-0.277 ± 0.062
13,M2C,-0.521 ± 0.095
14,S12E,-0.426 ± 0.45
15,S12L,-0.641 ± 0.12
16,S12M,-0.083 ± 0.23
17,G10L,-0.436 ± 0.13
18,I27G,-0.627 ± 0.12
19,I27D,-0.694 ± 0.066
20,I27K,-0.73 ± 0.13
21,I27E,-0.773 ± 0.15
22,G24E,-0.593 ± 0.2
23,G24Y,-0.729 ± 0.1
24,G24I,-0.897 ± 0.13

row,Variant,abundance fitness
1,G24H,-0.679 ± 0.17
2,G24N,-0.253 ± 0.065
3,G24V,-0.701 ± 0.08
4,G24Q,-0.733 ± 0.28
5,G24P,-0.749 ± 0.13
6,G24R,-0.778 ± 0.09
7,L57I,-0.176 ± 0.045
8,L57K,-0.585 ± 0.11
9,L57W,-1.03 ± 0.2
10,L57A,-0.57 ± 0.068
11,L57P,-0.655 ± 0.085
12,L57D,-0.429 ± 0.063
13,L57Q,-0.258 ± 0.16
14,L57E,-0.695 ± 0.27
15,G47I,-1.06 ± 0.35
16,G47Q,-0.861 ± 0.18
17,G47K,-0.839 ± 0.45
18,T28S,0.011 ± 0.054
19,T28W,-0.809 ± 0.38
20,T28C,-0.941 ± 0.2
21,L15T,0.273 ± 0.12
22,L15S,0.283 ± 0.059
23,L15E,0.034 ± 0.3
24,F21T,-0.465 ± 0.11

row,Variant,abundance fitness
1,F21V,-0.711 ± 0.09
2,F21N,-0.832 ± 0.11
3,F21E,-0.481 ± 0.17
4,L19A,-0.525 ± 0.076
5,L19C,-0.684 ± 0.12
6,L19H,-0.768 ± 0.15
7,G36K,-0.347 ± 0.12
8,G36Q,-0.797 ± 0.22
9,G36L,-0.831 ± 0.1
10,G36E,-0.958 ± 0.2
11,G36M,-0.584 ± 0.17
12,W37M,-0.019 ± 0.075
13,W37S,-0.62 ± 0.16
14,W37H,-0.326 ± 0.074
15,W37G,-0.652 ± 0.053
16,S1L,-0.554 ± 0.14
17,S1Y,0.064 ± 0.06
18,S1A,0.121 ± 0.084
19,S1F,-0.029 ± 0.087
20,S1D,-0.036 ± 0.15
21,S1I,0.103 ± 0.084
22,S1R,-0.319 ± 0.12
23,S1T,-0.092 ± 0.11
24,S1P,-0.661 ± 0.36

row,Variant,abundance fitness
1,P50A,-0.736 ± 0.11
2,P50F,-0.669 ± 0.09
3,P50D,-0.797 ± 0.13
4,P50Y,-0.794 ± 0.11
5,P50H,-0.333 ± 0.067
6,P50M,-0.38 ± 0.11
7,P50N,-0.371 ± 0.069
8,P50C,-0.93 ± 0.15
9,P50I,-0.691 ± 0.082
10,P50E,-0.509 ± 0.19
11,E41A,-0.32 ± 0.059
12,E41F,-0.6 ± 0.29
13,E41I,-0.073 ± 0.054
14,E41W,-0.773 ± 0.13
15,E41S,-0.806 ± 0.25
16,E41V,-0.148 ± 0.039
17,E41Q,-0.267 ± 0.11
18,E18I,-0.212 ± 0.082
19,E18G,-0.17 ± 0.039
20,E18N,-0.236 ± 0.093
21,P33K,-0.215 ± 0.13
22,P33S,-0.65 ± 0.1
23,P33A,-0.971 ± 0.3
